Reference: article PMC4131687

Legend:
Details in all cases: modification not given
[1] = target: NaV1.2 (Rattus norvegicus), P04775
[2] = target: NaV1.4 (Rattus norvegicus), P15390
[3] = target: NaV1.7 (Rattus norvegicus), O08562

NaV1.2 (Rattus norvegicus), P04775, sequence (P04775 whole entry): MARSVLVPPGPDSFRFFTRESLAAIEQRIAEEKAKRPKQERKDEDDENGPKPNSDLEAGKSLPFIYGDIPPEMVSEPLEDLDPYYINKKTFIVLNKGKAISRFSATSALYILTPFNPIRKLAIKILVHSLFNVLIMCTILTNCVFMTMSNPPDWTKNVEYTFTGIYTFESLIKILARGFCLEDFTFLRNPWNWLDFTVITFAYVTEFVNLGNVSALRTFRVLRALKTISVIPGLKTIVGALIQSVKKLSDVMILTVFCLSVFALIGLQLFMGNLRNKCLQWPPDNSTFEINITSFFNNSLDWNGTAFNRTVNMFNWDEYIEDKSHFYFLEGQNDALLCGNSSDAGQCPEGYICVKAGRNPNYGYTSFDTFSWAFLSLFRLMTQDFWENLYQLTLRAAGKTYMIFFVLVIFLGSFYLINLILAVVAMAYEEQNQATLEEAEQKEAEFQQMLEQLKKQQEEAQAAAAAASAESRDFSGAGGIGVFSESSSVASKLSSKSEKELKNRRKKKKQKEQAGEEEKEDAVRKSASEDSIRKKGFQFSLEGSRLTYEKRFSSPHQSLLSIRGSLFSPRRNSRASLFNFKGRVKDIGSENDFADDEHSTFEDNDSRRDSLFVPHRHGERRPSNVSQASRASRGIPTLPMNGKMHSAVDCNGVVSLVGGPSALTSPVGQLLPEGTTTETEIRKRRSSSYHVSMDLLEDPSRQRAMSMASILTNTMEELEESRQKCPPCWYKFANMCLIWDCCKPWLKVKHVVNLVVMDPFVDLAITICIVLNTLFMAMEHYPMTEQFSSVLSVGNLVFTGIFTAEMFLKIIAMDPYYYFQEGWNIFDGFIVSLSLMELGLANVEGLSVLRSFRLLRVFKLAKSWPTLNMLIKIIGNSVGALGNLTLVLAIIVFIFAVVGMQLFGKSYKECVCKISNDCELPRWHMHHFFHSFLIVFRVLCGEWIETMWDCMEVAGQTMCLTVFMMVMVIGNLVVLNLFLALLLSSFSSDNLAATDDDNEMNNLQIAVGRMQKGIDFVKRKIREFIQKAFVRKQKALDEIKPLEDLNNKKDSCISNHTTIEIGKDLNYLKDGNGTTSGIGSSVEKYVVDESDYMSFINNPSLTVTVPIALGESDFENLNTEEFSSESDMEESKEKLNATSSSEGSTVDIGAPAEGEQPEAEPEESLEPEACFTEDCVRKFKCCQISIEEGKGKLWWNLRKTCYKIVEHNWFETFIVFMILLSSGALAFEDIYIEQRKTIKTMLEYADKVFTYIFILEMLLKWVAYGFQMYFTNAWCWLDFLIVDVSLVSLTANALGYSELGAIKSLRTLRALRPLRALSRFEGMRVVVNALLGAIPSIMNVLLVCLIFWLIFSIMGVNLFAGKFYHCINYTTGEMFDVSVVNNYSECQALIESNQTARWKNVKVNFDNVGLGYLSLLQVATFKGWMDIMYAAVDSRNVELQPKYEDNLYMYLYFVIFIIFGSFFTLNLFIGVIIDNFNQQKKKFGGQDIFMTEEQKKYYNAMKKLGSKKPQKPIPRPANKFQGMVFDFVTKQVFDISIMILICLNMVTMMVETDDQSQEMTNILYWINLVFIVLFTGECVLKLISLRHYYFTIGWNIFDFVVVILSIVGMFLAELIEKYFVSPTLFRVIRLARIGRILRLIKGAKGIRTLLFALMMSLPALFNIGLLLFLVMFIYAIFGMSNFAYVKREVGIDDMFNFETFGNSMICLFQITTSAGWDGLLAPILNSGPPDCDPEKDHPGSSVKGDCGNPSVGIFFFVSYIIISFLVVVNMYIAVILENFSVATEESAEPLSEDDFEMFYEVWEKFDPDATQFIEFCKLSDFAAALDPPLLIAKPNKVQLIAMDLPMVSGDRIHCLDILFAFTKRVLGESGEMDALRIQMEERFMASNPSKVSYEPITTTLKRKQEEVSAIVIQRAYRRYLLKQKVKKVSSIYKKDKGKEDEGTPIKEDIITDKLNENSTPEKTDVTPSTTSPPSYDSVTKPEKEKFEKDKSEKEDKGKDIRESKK
NaV1.4 (Rattus norvegicus), P15390, sequence (P15390 whole entry): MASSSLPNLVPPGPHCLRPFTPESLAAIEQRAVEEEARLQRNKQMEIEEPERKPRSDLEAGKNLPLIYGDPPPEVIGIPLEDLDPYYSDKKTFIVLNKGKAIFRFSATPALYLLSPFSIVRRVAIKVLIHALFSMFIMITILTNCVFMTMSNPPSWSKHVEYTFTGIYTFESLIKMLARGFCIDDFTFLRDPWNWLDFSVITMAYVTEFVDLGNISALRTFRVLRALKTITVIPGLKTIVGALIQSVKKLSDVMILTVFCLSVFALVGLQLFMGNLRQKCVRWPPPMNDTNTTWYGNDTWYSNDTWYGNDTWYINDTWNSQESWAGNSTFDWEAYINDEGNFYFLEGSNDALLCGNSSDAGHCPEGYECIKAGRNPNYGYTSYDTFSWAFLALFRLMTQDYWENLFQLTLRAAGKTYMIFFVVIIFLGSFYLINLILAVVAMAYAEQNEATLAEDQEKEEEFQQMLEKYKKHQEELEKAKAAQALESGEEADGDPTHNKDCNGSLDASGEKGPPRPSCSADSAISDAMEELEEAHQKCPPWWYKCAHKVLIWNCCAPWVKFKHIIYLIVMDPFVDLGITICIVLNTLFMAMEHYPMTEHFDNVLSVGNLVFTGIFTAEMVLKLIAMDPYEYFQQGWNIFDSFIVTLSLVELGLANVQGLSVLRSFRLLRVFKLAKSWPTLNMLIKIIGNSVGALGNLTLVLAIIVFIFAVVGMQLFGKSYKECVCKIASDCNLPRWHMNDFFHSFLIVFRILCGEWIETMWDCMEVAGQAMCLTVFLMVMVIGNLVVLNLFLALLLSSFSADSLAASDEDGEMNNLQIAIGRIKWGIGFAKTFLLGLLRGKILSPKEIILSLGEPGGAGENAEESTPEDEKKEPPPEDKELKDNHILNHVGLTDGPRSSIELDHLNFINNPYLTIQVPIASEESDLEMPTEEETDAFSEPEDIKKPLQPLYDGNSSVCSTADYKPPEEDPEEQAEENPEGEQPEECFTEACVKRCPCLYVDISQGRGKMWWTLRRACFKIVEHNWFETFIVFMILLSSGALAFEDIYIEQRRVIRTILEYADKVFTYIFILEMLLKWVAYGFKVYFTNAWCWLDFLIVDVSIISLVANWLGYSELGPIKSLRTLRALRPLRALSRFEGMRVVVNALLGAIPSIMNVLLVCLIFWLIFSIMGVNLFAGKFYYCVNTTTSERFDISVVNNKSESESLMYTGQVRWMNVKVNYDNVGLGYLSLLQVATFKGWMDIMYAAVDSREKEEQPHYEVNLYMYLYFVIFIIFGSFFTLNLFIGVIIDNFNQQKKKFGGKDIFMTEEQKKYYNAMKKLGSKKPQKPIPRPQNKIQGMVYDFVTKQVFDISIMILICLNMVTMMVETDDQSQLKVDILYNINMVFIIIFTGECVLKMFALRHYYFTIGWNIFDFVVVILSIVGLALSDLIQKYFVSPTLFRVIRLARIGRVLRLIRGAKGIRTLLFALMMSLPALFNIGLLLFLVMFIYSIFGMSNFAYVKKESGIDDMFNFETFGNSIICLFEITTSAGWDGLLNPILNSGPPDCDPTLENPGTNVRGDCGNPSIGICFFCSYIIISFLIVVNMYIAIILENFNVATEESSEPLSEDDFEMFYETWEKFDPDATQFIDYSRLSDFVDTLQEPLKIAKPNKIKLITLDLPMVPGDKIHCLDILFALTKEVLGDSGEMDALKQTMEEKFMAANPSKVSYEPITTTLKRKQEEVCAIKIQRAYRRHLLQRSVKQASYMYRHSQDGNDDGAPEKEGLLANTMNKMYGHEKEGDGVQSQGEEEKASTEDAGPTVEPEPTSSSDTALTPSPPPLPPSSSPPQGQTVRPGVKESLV

## CCNCSSKWCRDHSRCC [μ-conotoxin KIIIA-P2, P0C195]
[1]
  Kd: 0.23 µM
[2]
  Kd: 0.83 µM
[3]
  Kd: 1.57 µM
